Assay results taken from US9296811B2, “Methods for treating a tumor using an antibody that specifically binds HMW-MAA” (University of Pittsburgh—Of the Commonwealth System of …, priority 2010, dated 2016).
“Also recorded” adds a separate entry of the source.

What was measured:
[1] = tested on: melanoma cell lines (Colo38, M21, SK-MEL-37, MV3, 1520); assay: MTT cell growth assay, vemurafenib and C21; assay type: cell-based, human
[2] = target: V600E mutated BRAF (Homo sapiens, UniProt P15056, V600E); settings: cited from earlier work
[3] = target: T1, CSPG4 (Homo sapiens, UniProt Q6UVK1); assay: FACS reactivity of C21 with established and patient-derived melanoma cell lines; assay type: binding; settings: established or patient-derived lines containing BRAF^V600E or BRAF^WT
T1 construct: Representative FACS analysis of CSPG4 expression by melanoma cell lines using CSPG4-specific C21 and PE-conjugated anti-human IgG; endogenous in cells; host or cells: established (1520, 836, Colo38, M21, MEL526, MV3, SK-MEL-28, SK-MEL-37, WM1158) and patient-derived (Mel-JR, Mel-KD, pre/post vemurafenib) human melanoma cell lines
Excerpt: FIG. 5A to 5B. […] (FIG. 5A) Representative FACS analysis of CSPG4 expression by melanoma cell lines using CSPG4-specific C21 and PE-conjugated anti-human IgG. 119 was used as an isotype control. (FIG. 5B) A panel of melanoma cell lines bound by C21. *Percentage of CSPG4^+ cells. MFI: mean fluorescence intensity. The top section (1520, 836, Colo38, M21, MEL526, MV3, KS-MEL-28, SK-MEL-37, and WM1158) are established melanoma cell lines; The bottom section (MeI-JR(pre), MEL-JR(post), Mel-KD(pre), and Mel-KD(post)) are patient-derived human melanoma cell lines; pre: before vemurafenib (PLX4032) treatment, post: after vemurafenib (PLX4032) treatment.
A fully human mAb, scFc-FcC21 was produced by combining the HMW-MAA (CSPG4)-specific single chain of variable regions of heavy and light chains (scFv) to a Fc portion of IgG1 at the DNA level.

[4] = tested on: melanoma cells; assay: Prevention/delay of acquired resistance of melanoma cells to vemurafenib in vitro; assay type: cell-based, human
Description: FIG. 13. Prevention/delay of acquired resistance of melanoma cells to vemurafenib. Melanoma cells were seeded in 6-well plates (2.5×10^4 cells/well) containing 2 ml/well RPMI 1640/10% FCS. […] Cells received fresh growth medium every 4 days containing the appropriate treatment concentrations, for 28 days. Cells in randomly selected fields were photographed at different timepoints using a Zeiss Inverted Fluorescence Microscope
In addition, the results presented in FIG. 13 evidences that treatment with C21 delayed resistance to vemurafenib up to 28 days in vitro, at which point the rate of cell growth was unaffected by the presence or absence of vemurafenib (10 μM) in the absence of C21.

[5] = tested on: EGFR and PDGFRα; assay: Activation of EGFR and PDGFRα in melanoma cells after C21; assay type: cell-based, human; settings: acquired resistance to BRAF inhibitor
[6] = tested on: BRAF^V600E and BRAF^WT melanoma cell; assay: MTT growth inhibition of melanoma cell lines by C21; assay type: cell-based, human; settings: BRAF^V600E and BRAF^WT cells, 3, 5 days
Description: FIG. 7. […] The indicated cells were seeded in triplicate in 96-well plates (2.5×10^3/well) and treated for 3, 5 days with C21 and 119 in RPMI 1640/1% FCS. Living cells were detected using MTT assays. The results are expressed as percent inhibition of cell growth, with untreated cells representing 100%. Mean values±SD were calculated from two independent experiments.

[7] = tested on: human melanoma BRAF(V600E)/CSPG4^+ xenografts; assay: Survival of mice bearing M21 xenografts, vemurafenib and C21; assay type: in vivo; settings: M21 xenograft; vemurafenib 25 mg/kg orally twice a day for 13 days; C21 1 mg/mouse i.v. twice a week for 2 weeks; vs vemurafenib alone or vemurafenib+119
Description: FIG. 11. Improved response duration for vemurafenib in vivo. Human melanoma M21^BRAF(V600E)/CSPG4+ cells (2×10^6/mouse) were injected subcutaneously (s.c.) into 20 mice (day 0). By day 7, tumors were measurable, and mice were divided into four groups (5 mice/group) using a stratified randomization strategy. Mice received either vemurafenib, vemurafenib+C21, vemurafenib+119, or were untreated. Vemurafenib was delivered orally (25 mg/kg) twice a day for 13 days, while C21 or 119 were injected i.v. (1 mg/mouse) twice a week for 2 weeks. All mice were monitored for survival.

[8] = tested on: human melanocytic lesions; assay: Immunohistochemical staining of frozen sections of human melanocytic lesions with C21; assay type: binding; settings: benign pigmented nevus, primary melanoma, metastatic melanoma
Excerpt: FIG. 6A-6F. Digital images of immunohistochemical staining of frozen sections of human melanocytic lesions with C21.

[9] = tested on: normal human organ tissues; assay: IHC staining of normal human organ tissue microarray with C21 (cross-reactivity); assay type: binding; settings: for IHC Result: normal human tissue, C21 4 μg/mL

Chain of V600E mutated BRAF (P15056 whole entry V600E): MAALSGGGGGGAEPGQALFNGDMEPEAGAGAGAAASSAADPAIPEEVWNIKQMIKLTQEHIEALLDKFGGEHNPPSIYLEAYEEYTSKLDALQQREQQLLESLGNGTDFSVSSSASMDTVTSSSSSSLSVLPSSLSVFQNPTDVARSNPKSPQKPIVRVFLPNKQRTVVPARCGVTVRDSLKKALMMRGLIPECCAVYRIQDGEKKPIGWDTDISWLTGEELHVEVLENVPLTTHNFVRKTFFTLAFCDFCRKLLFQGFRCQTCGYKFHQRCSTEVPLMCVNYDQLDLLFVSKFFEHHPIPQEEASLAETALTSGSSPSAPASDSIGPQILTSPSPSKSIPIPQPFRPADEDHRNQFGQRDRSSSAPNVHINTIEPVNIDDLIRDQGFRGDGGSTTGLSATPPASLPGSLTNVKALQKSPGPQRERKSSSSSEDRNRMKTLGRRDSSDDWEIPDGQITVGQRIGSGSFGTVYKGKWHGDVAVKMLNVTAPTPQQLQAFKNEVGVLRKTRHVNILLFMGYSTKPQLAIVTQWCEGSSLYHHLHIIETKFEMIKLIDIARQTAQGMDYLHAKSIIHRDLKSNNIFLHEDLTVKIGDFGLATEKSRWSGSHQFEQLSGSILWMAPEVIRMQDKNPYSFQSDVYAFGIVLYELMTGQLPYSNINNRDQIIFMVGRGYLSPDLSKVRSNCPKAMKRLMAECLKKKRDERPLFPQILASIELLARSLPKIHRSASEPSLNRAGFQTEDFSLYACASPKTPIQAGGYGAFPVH
T1 sequence (Q6UVK1 30-2322): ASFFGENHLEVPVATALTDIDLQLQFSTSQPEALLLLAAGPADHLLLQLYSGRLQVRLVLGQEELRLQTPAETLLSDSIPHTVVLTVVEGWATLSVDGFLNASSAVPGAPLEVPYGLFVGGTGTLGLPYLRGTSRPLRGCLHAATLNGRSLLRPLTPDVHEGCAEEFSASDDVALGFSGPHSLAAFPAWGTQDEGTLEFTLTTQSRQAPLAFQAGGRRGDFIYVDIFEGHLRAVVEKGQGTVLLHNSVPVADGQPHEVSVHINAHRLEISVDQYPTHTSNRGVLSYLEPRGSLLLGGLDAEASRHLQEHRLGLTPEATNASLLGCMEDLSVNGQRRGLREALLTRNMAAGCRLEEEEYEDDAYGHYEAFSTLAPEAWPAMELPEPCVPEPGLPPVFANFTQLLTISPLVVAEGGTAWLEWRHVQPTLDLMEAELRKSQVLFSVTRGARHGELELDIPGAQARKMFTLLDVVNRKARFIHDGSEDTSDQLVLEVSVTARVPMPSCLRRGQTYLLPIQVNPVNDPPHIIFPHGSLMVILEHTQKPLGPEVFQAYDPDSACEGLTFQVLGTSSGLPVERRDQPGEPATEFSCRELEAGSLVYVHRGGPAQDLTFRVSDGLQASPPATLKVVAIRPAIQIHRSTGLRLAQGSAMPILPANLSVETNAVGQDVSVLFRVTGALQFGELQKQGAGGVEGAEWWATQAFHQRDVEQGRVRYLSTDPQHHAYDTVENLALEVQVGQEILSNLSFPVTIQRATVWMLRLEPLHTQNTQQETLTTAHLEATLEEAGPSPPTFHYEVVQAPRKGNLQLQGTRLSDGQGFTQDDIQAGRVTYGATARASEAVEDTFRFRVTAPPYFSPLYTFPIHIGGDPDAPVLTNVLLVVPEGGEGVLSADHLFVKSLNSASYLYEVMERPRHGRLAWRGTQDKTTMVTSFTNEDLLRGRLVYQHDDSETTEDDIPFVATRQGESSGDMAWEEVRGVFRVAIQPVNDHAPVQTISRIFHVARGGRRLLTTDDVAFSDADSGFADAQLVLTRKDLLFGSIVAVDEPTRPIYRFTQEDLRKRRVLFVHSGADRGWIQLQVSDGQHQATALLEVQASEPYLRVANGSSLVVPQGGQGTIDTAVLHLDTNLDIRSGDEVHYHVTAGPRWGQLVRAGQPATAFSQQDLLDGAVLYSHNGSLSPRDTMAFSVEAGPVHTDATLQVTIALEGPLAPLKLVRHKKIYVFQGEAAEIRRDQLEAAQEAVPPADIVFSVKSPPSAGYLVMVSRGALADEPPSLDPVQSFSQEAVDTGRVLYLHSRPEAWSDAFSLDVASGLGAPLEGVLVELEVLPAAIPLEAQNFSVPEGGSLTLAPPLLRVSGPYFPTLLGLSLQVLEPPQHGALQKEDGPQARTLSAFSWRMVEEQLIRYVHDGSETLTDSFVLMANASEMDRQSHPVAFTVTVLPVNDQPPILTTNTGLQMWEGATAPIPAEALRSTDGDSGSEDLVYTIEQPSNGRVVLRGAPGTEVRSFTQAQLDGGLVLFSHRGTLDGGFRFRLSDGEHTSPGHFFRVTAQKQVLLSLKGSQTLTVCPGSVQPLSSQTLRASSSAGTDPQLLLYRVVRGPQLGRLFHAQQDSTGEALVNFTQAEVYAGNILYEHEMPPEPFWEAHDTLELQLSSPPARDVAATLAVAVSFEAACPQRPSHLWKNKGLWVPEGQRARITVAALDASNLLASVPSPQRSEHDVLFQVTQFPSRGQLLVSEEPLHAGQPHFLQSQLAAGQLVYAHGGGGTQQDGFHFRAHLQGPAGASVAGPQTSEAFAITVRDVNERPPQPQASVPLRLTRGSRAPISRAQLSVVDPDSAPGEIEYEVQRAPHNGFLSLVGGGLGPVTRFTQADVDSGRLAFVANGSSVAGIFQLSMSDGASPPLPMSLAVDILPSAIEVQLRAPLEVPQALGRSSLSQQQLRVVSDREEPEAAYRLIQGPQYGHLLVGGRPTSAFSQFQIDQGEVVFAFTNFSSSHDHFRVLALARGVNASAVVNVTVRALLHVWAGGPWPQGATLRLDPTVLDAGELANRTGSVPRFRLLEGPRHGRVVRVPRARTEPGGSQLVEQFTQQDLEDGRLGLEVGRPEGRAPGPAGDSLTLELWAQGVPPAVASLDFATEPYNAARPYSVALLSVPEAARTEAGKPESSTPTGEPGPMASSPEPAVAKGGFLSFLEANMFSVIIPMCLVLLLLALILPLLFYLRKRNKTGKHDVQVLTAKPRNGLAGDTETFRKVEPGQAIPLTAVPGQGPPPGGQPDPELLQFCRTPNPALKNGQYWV

CCCS(=O)(=O)Nc1ccc(F)c(C(=O)c2c[nH]c3ncc(-c4ccc(Cl)cc4)cc23)c1F [vemurafenib, Vemurafenib]
cell growth ([1]; BRAF^WT MV3 cells, vemurafenib 500 nM): did not affect
response rate ([2]; 32 BRAF mutated advanced melanoma patients, phase II study (Flaherty et al 2010)): 70%
tumor regression and overall survival ([2]; Phase I clinical trials, advanced melanoma patients with the V600E BRAF mutation): effective in promoting tumor regression and increasing overall survival
median duration of response ([2]; melanoma patients treated with BRAF selective inhibitor): ~8 months

B1: C21: fully human mAb: HMW-MAA (CSPG4)-specific scFv combined to a Fc portion of IgG1; SEQ ID NOs: 3 and 4 (antibody, listed as Homo sapiens, V domains shown)
VH: QVQLVQSGAEVKKPGSSVKVSCKASGGTFSSYAISWVRQAPGQGLEWMGGIIPIFGTANYAQKFQGRVTITADESTSTAYMELSSLRSDDTAVYYCARALDPITFDSWGQGTLVTVSR
VL: SELTQDPAVSVALGQTVRITCQGDSLRSYYASWYQQKPGQAPVLVIYGKNNRPSGIPDRFSGSSSGNTASLTITGAQAEDEADYYCNSRDSSGNHVVFGGGTKLTVLGRS
reactivity with human melanoma cell lines [3]: Broad reactivity
reactivity with human melanoma cell lines ([3]; listed as scFv-FcC21 (C21)): able to recognize
delay of resistance to vemurafenib in vitro ([4]; C21 0.1 mg/mL with vemurafenib increasing 500 to 10,000 nM): up to 28 days
onset of acquired resistance to vemurafenib ([4]; melanoma cell line 1520, BRAF^V600E positive, CSPG4 negative): did not delay
activation of EGFR and PDGFRα [5]: down-regulating activation
inhibition of melanoma cell growth in vitro [6]: Growth inhibition; also recorded: inhibited
survival of mice [7]: prolonging the survival
IHC staining of melanocytic lesions [8]: homogeneous cytoplasmic and cytoplasmic membrane staining
IHC Result ([9]; Cerebellum): negative
IHC Result ([9]; Cerebrum): negative
IHC Result ([9]; Colon): negative
IHC Result ([9]; Esophagus): negative
recognition of a panel of normal human organ tissues ([9]; FIG. 6, Table 2): not a panel of normal human organ tissues
IHC Result ([9]; Heart): negative
IHC Result ([9]; Kidney): negative
IHC Result ([9]; Liver): negative
IHC Result ([9]; Lung): negative
IHC Result ([9]; Lymph node): negative
IHC Result ([9]; Ovary): negative
IHC Result ([9]; Pancreas): negative
IHC Result ([9]; Peripheral nerve): negative
IHC Result ([9]; Pituitary gland): negative
IHC Result ([9]; Placenta): negative
IHC Result ([9]; Prostate): negative
IHC Result ([9]; Salivary gland): negative
IHC Result ([9]; Skeletal muscle): negative
IHC Result ([9]; Skin): negative
IHC Result ([9]; Small intestine): negative
IHC Result ([9]; Smooth muscle): negative
IHC Result ([9]; Spinal cord): negative
IHC Result ([9]; Spleen): negative
IHC Result ([9]; Stomach): negative
IHC Result ([9]; Testis): negative
IHC Result ([9]; Thymus): negative
IHC Result ([9]; Thyroid gland): negative
IHC Result ([9]; Ureter): negative
IHC Result ([9]; Uterine cervix): negative
cell growth ([1]; 1520 cells negative for CSPG4, C21 0.1 mg/mL): did not affect
